Measured values from publication doi:10.1101/2021.11.08.467681 (bioRxiv, 2021).
Changes are numbered by the printed parent chain. Names and notes keep the numbering of the source.

B1: FtsA WT(1-405)-6xHis (domain or fragment)
chain: MIKATDRKLVVGLEIGTAKVAALVGEVLPDGMVNIIGVGSCPSRGMDKGGVNDLESVVKCVQRAIDQAELMADCQISSVYLALSGKHISCQNEIGMVPISEEEVTQEDVENVVHTAKSVRVRDEHRVLHVIPQEYAIDYQEGIKNPVGLSGVRMQAKVHLITCHNDMAKNIVKAVERCGLKVDQLIFAGLASSYSVLTEDERELGVCVVDIGGGTMDIAVYTGGALRHTKVIPYAGNVVTSDIAYAFGTPPSDAEAIKVRHGCALGSIVGKDESVEVPSVGGRPPRSLQRQTLAEVIEPRYTELLNLVNEEILQLQEKLRQQGVKHHLAAGIVLTGGAAQIEGLAACAQRVFHTQVRIGAPLNITGLTDYAQEPYYSTAVGLLHYGKESHLNGEAEVEKRVTASV
B2: FtsA R286W (1-405)-6xHis (domain or fragment)
chain: B1 chain with R286W
B3: FtsA WT (natural protein)
chain: MIKATDRKLVVGLEIGTAKVAALVGEVLPDGMVNIIGVGSCPSRGMDKGGVNDLESVVKCVQRAIDQAELMADCQISSVYLALSGKHISCQNEIGMVPISEEEVTQEDVENVVHTAKSVRVRDEHRVLHVIPQEYAIDYQEGIKNPVGLSGVRMQAKVHLITCHNDMAKNIVKAVERCGLKVDQLIFAGLASSYSVLTEDERELGVCVVDIGGGTMDIAVYTGGALRHTKVIPYAGNVVTSDIAYAFGTPPSDAEAIKVRHGCALGSIVGKDESVEVPSVGGRPPRSLQRQTLAEVIEPRYTELLNLVNEEILQLQEKLRQQGVKHHLAAGIVLTGGAAQIEGLAACAQRVFHTQVRIGAPLNITGLTDYAQEPYYSTAVGLLHYGKESHLNGEAEVEKRVTASVGSWIKRLNSWLRKEF

Target: the molecule itself
Experiment: FRET or BRET

Binding result, binds:
B1
B2
B3
